Results on 29 sequences are retold here after the supplement of paper PMC9428881.

± gives the standard error.

The data set can be described thus: background-corrected fluorescence of 3'-dye-labeled ssDNA relative to brightest sequence (3'-GCGCG) (fraction); higher = brighter dye fluorescence (less quenching). The procedure, abridged:
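By light-directed phosphoramidite synthesis, single-stranded DNA ending in a 3' Cy3 or Cy5 dye beside each of 1024 permuted pentamers was built on glass slides. Scanning at 532 or 635 nm took place before and after overnight ethylenediamine/ethanol deprotection. Data are means of 10 features per array over at least 3 syntheses. Fluorescence is corrected for unlabeled-oligo background and scaled to the brightest sequence.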

For “TTTTTTGCTGATCAGCATCATTTTTTTTTTTTTTTACGTG [GTGCA]”, the background-corrected fluorescence by setting is: (dye: Cy3 (3' terminal)) 0.589 ± 0.022; (dye: Cy5 (3' terminal)) 0.472 ± 0.028.
For “TTTTTTGCTGATCAGCATGATTTTTTTTTTTTTTTACGTC [CTGCA]” the same measures were 0.448 ± 0.016 and 0.373 ± 0.025.
For “TTTTTTGCTGATCAGCATGCTTTTTTTTTTTTTTTACGTA [ATGCA]” the same measures were 0.61 ± 0.016 and 0.465 ± 0.024.
For “TTTTTTGCTGATCATCAGCATTTTTTTTTTTTTTTACGGT [TGGCA]” the same measures were 0.664 ± 0.018 and 0.565 ± 0.045.
“TTTTTTGCTGATCATCATCATTTTTTTTTTTTTTTACGGG [GGGCA]”: the background-corrected fluorescence runs as follows: (dye: Cy3 (3' terminal)) 0.6553 ± 0.0063; (dye: Cy5 (3' terminal)) 0.579 ± 0.05.
On to “TTTTTTGCTGATCATCATGATTTTTTTTTTTTTTTACGGC [CGGCA]”, for which the background-corrected fluorescence (dye: Cy3 (3' terminal)) is 0.594 ± 0.029 and the background-corrected fluorescence (dye: Cy5 (3' terminal)) was 0.433 ± 0.049.
For “TTTTTTGCTGATCATCATGCTTTTTTTTTTTTTTTACGGA [AGGCA]” the same measures were 0.683 ± 0.03 and 0.588 ± 0.029.
In turn, “TTTTTTGCTGATCATGAGCATTTTTTTTTTTTTTTACGCT [TCGCA]” had a background-corrected fluorescence (dye: Cy3 (3' terminal)) of 0.5 ± 0.065 and a background-corrected fluorescence (dye: Cy5 (3' terminal)) of 0.391 ± 0.029.
For “TTTTTTGCTGATCATGATCATTTTTTTTTTTTTTTACGCG [GCGCA]” the same measures were 0.973 ± 0.017 and 0.876 ± 0.027.
On to “TTTTTTGCTGATCATGATGATTTTTTTTTTTTTTTACGCC [CCGCA]”, for which the background-corrected fluorescence worked out at 0.467 ± 0.021 (dye: Cy3 (3' terminal)) and 0.393 ± 0.027 (dye: Cy5 (3' terminal)).
Regarding “TTTTTTGCTGATCATGATGCTTTTTTTTTTTTTTTACGCA”, the background-corrected fluorescence runs as follows: (dye: Cy3 (3' terminal)) 0.525 ± 0.032; (dye: Cy5 (3' terminal)) 0.445 ± 0.028.
For “TTTTTTGCTGATCATGCGCATTTTTTTTTTTTTTTACGAT [TAGCA]” the same measures were 0.519 ± 0.035 and 0.429 ± 0.045.
For “TTTTTTGCTGATCATGCTCATTTTTTTTTTTTTTTACGAG [GAGCA]” the same measures were 0.62 ± 0.017 and 0.507 ± 0.078.
For “TTTTTTGCTGATCATGCTGATTTTTTTTTTTTTTTACGAC [CAGCA]” the same measures were 0.486 ± 0.025 and 0.38 ± 0.035.
Regarding “TTTTTTGCTGATCATGCTGCTTTTTTTTTTTTTTTACGAA [AAGCA]”, the background-corrected fluorescence turned out to be 0.575 ± 0.032 (dye: Cy3 (3' terminal)) and 0.452 ± 0.026 (dye: Cy5 (3' terminal)).
For “TTTTTTGCTGATGAGCAGCATTTTTTTTTTTTTTTACCTT [TTCCA]” the same measures were 0.463 ± 0.018 and 0.351 ± 0.018.
On to “TTTTTTGCTGATGAGCATCATTTTTTTTTTTTTTTACCTG [GTCCA]”, for which the background-corrected fluorescence was determined as 0.499 ± 0.023 (dye: Cy3 (3' terminal)) and 0.384 ± 0.02 (dye: Cy5 (3' terminal)).
As for “TTTTTTGCTGATGAGCATGATTTTTTTTTTTTTTTACCTC [CTCCA]”, the background-corrected fluorescence by setting is: (dye: Cy3 (3' terminal)) 0.438 ± 0.0039; (dye: Cy5 (3' terminal)) 0.271 ± 0.016.
For “TTTTTTGCTGATGAGCATGCTTTTTTTTTTTTTTTACCTA [ATCCA]” the same measures were 0.449 ± 0.018 and 0.366 ± 0.019.
For “TTTTTTGCTGATGATCAGCATTTTTTTTTTTTTTTACCGT [TGCCA]” the same measures were 0.624 ± 0.025 and 0.479 ± 0.034.
For “TTTTTTGCTGATGATCATCATTTTTTTTTTTTTTTACCGG [GGCCA]” the same measures were 0.69 ± 0.03 and 0.551 ± 0.059.
For the sequence “TTTTTTGCTGATGATCATGATTTTTTTTTTTTTTTACCGC [CGCCA]”, the background-corrected fluorescence (dye: Cy3 (3' terminal)) was 0.592 ± 0.014 and the background-corrected fluorescence (dye: Cy5 (3' terminal)) is 0.406 ± 0.026.
For “TTTTTTGCTGATGATCATGCTTTTTTTTTTTTTTTACCGA [AGCCA]” the same measures were 0.601 ± 0.025 and 0.515 ± 0.031.
For “TTTTTTGCTGATGATGAGCATTTTTTTTTTTTTTTACCCT [TCCCA]” the same measures were 0.446 ± 0.023 and 0.34 ± 0.021.
For “TTTTTTGCTGATGATGATCATTTTTTTTTTTTTTTACCCG [GCCCA]” the same measures were 0.505 ± 0.03 and 0.411 ± 0.03.
Turning to “TTTTTTGCTGATGATGATGATTTTTTTTTTTTTTTACCCC [CCCCA]”, the background-corrected fluorescence reads like this: (dye: Cy3 (3' terminal)) 0.358 ± 0.016; (dye: Cy5 (3' terminal)) 0.271 ± 0.027.
For “TTTTTTGCTGATGATGATGCTTTTTTTTTTTTTTTACCCA” the same measures were 0.462 ± 0.029 and 0.351 ± 0.019.
For “TTTTTTGCTGATGATGCGCATTTTTTTTTTTTTTTACCAT” the same measures were 0.499 ± 0.026 and 0.364 ± 0.024.
For “TTTTTTGCTGATGATGCTCATTTTTTTTTTTTTTTACCAG [GACCA]” the same measures were 0.516 ± 0.024 and 0.378 ± 0.028.
